experiment: soluble on expression in E. coli; label from the status in PepcDB or PDB records

Sequence	soluble on expression in E. coli
MKYILFATAGHVDHGKTTLIKTLTGIDTDRLPEEKKRGLSIDIGFAYIDFPDINTRLEIIDVPGHERFIKNAIAGICSASGLILVVDPNEGIMPQTIEHLRVAKSFGIKHGIAVLTKMDKVDEELAHIAEEELIAFLEKEEMNMEIVKVSAVTGQGIEDLKNSIKKLLESINNLNKHKPLRIFVDSAFVVKGYGTVLRGSCFEGEVKEGDKVVVEPIGVISRVRKMQNHGVFVKKAVAGERIALNLPEVDAKKVKRGFLILKPESYEKSNVLIVKTEIDLKPGKIYQVFFGMRETVGKISVIDKGIYLVRLKENAIVRRGDKLVVLDSSGNFLGGAEVLHPKVRVTKKAFIKKNIKDLLENFECYLLKERGPIGLKLEFFKRITGVSPKVANLKPESIEIRGVYYLKGFIENLKLKIKKFLDTELQNAFGVDKEKVKSMFSLNEELLKYILDELKTYKIVNELIIDERKSDLEKNEDFQKLMSILKGGIKEEREIILEGIPKEILTLSIKRKYAHRIGEYLIISDELLKKYINELKELGKTFNVQQAKNKLGLTRKYLIPLLEYLDYLGLTVREGNERRWKR	soluble
MKYKIFASTTPQTEPVLNKLRAVLKTWQAVENGYEYVFVLGGDGFFVSTLANYNCDSCKVVGINTGHIGFYTSFNGDDLDENFISKLTSFEFKKINLLEVKTKNHSFLVLNELAVYTNTAYPINIFIDDNHWESYRGSGLLIGPRTGSTALAKSAKGAVIFPNVDVVQIIELNPLLHPNQITIQSPIILPMQTKVEFRIKKAFKAEQFPNFYADGIKLDLKNEDTSISFQLVLSRSMFHASLKTKDFIDKLKSTFIKQSLEHHHHHH	soluble
MKYNREKLKNKVCLAIIGMPHGIKGDVLLKILSSEPQRLKTYGTLYDDRGHSYEIVMLRMQKKNAIVHFKGVEDRSAAEALRGIHLYVARDQLVDDLTEDEFYQVDLIGLRVQDCTGRILGEVSGLFNFGAGDLLEMRLNTGKTVLIPFSKAAVLEVCIASGFLVVDPVAAGLSDGGENTLEHHHHHH	soluble
MKYPTIIDSQQLFREPDHPLKAGLDPKCRSTKPLCPDTFAKVMKTIDTFIFDADGVLWLGESVMPGSPRLIDYLVKHNKQIIVLTNNATKSRAVYAKKLAKLGYNSSKMNKNNLVNPAAVVADTLHRAGLDGKRVYLIGEQGLRDEMDELGIEYFGHGPEKKQDEADGSGAFMYDIKLEENVGAVVVGYEKHFDYIKMMKASNYLREEGVLFVATNEDETCPGPNPEVVIPDAGPIVAAIKCASGRDPLTVGKPCTPAFNYIKRKWNINPSRTMMIGDRTNTDVKFGRDHGMKTLLVLSGCHQIEDIIENQMNERDDMVPDYVAPCLGALVPERI	not soluble
MKYVFIENHRAEFSIKAMCRVLRVARSGWYVWLRRRHQMSLRQQFRLTCDAAVHKAFFEAKQRYGAPRLADELPEFNIKTIAASLRRQGLRAKASRKFSPVSYRAHGLPVLENLLEQDFSASGPKPEVGG	not soluble
MLCAVYKSSRKADTYLFVNKRDCFDDVPQALLDMFGVPQLVMVFPIVKRESLGIADINKVRAALEEKGFYLQIPPPQVNLLAEHRENLGIKD	soluble
MLCEIECRALSTAHTRLIHDFEPRDALTYLEGKNIFTEDHSELISKMSTRLERIANFLRIYRRQASELGPLIDFFNYNNQSHLADFLEDYIDFAINEPDLLRPVVIAPQFSRQMLDRKLLLGNVPKQMTCYIREYHVDRVIKKLDEMCDLDSFFLFLHGRAGSGKSVIASQALSKSDQLIGINYDSIVWLKDSGTAPKSTFDLFTDILLMLKSEDDLLNFPSVEHVTSVVLKRMICNALIDRPNTLFVFDDVVQEETIRWAQELRLRCLVTTRDVEISNAASQTCEFIEVTSLEIDECYDFLEAYGMPMPVGEKEEDVLNKTIELSSGNPATLMMFFKSCEPKTFEKMAQLNNKLESRGLVGVECITPYSYKSLAMALQRCVEVLSDEDRSALAFAVVMPPGVDIPVKLWSCVIPVDICSNEEEQLDDEVADRLKRLSKRGALLSGKRMPVLTFKIDHIIHMFLKHVVDAQTIANGISILEQRLLEIGNNNVSVPERHIPSHFQKFRRSSASEMYPKTTEETVIRPEDFPKFMQLHQKFYDSLKNFACC	soluble
MLDKLRSRLVHAGPSLMSVPVKLTPFALKRQVLEQVLSWQFRQALADGELEFLEGRWLSIHVRDIDLKWYTTVENEKLIVSQQADADVSFSADASDLLMIAARKQDPDTLFFQRRLVIEGDTELGLYVKNLMDAIELEQMPKALRVMLLQLADFVEAGMKNSPETKQTSVGEPC	not soluble
MLDSKLKAPVFTVRTQGREYGEFVLEPLERGFGVTLGNPLRRILLSSIPGTAVTSVYIEDVLHEFSTIPGVKEDVVEIILNLKELVVRFLNPSLQTVTLLLKAEGPKEVKARDFLPVADVEIMNPDLHIATLEEGGRLNMEVRVDPGVGYVPAEKHGIKDRINAIPVDAVFSPVRRVAFQVEDTRLGQRTDLDKLTLRIWTDGSVTPLEALNQAVEILREHLTYFSNPQAAAVAAPEEAKEPEAPPEQEEELDLPLEELGLSTRVLHSLKEEGIESVRALLALNLKDLKNIPGIGERSLEEIKEALEKKGFTLKE	soluble
MLDYIPWIGNGYRYGNGYKGVAGAGHSATNGSPAGNTSSTTQSNDVAPTFSNVGVGLKANVQGTLGDSQTTTVGGHQWPTLDPANLQLWTGAEWRNDSKTQNNTTTNENHTKFASATGSGQQQGSTTTTSAGNPDSLKQDKADKSGNSISVQEATSGDNLTNYTNLPPNLTPTSDWPNALSFTNKNNAQRAQLFLRGLLGSIPVLVNNLEHHHHHH	not soluble
MLEADDQGCIEEQGVEDSANEDSVDAKPDRSSFVPSLFSKKKKNVTMRSIKTTRDRVPTYQYNMNFEKLGKCIIINNKNFDKVTGMGVRNGTDKDAEALFKCFRSLGFDVIVYNDCSCAKMQDLLKKASEEDHTNAACFACILLSHGEENVIYGKDGVTPIKDLTAHFRGDRSKTLLEKPKLFFIQACRGTELDDGIQADSGPINDTDANPRYKIPVEADFLFAYSTVPGYYSWRSPGRGSWFVQALCSILEEHGKDLEIMQILTRVNDRVARHFESQSDDPHFHEKKQIPCVVSMLTKELYFSQ	soluble
MLEDLRANSWSLRPCCMVLAYRIAHFCSVWRKKNVLNNLWAAPVLVLYRVITECLFGYEIQAAATIGRRFTIHHGYAVVINKHVVAGDDFTIRHGVTIGNRGADSLACPVIGNGVELGANVILLGDITIGNHVTIGAGSVVLDSIPDHALVVGEKARVKVST	not soluble
MLEEEQALLEKVVETLSNDIEEKEEKIEKLRRSYTNGNGALANIYEDYRSGFKSGIGARPGR	not soluble
MLELKSDDREYTANMLLLNDTDKTVKHKTVGEFYQDLIKQYANESKCGNRLIYKSSYNSLYTFTKGNLDIPFSAINPSWLCNYEKWLRSKGNKETTMSLMLRTLRSTYNKAIENKYARKSDYPFNEYKIGKFDVSTEKRAIAKADIMKLTADISSVGKRQYVQLSKDIFMFSYLCGGINFTDIANLTSKNIVDGKRLHYIRQKTGKLIKLGLSDAALRIIERYAPDSHGYLFPILNVEVHKTALQKQNRIHKILSKVNSNLKLIATQSGLDINLTTYVARHSFATVLKKSGVNIALISEALGHSDLATTQIYLDSFDNEQIDDAMKNLL	not soluble
MLENSKKLIMNFVLKYSKKKRQNSGINISEICKFFEHVPLSCAALGLATKKNFGGEICAFKERKIKNYCKIFEPKSALFQTPPPPLIVGVISGAH	soluble
MLEPCTKRSELLYRMHLLSKEISHVFEQQTNMSFTKVEILFHIKQTPGQSQNRLKEKLYIDSASITRHLKRMEEQGLIVRKKQDENKRYTYLFLTPAGEAELTSLLTEKEKFQTGALEGFSEDEVSALLKSVTKMMNNVEKLEEKLK	not soluble
MLEQVCQLARNAGDAIMQVYDGAKPMEYARKQDDSPVTAADIAAHTVILEGLRTLTPDIPVLSEEDPPAWEVRQHWQRYWLVDPLDGTKEFIKRNGEFTVNIALIEQGKPVLGVVYAPVLKVMYYAAEGKAWKEECGVRKQIQVRDARPPLVVISRSHTDDELTEYLQQLGEHQTTSIGSSLKFCLVAEGQAQLYPRFGPTSVWDTAAGHAIAVAAGAHVHDWQGKTLDYTPRESFLNPGFRVTIY	not soluble
MLETDLEARMQILRESGFQESQGDDDTFAQRAEWFYQGRPLLLSLCLDLYNGYVTLLGRSSHQTRLKPTTSLPNQLLQDDDDCISDIDSVSEVSSEVESTLSFQQMKDPTAVSEKVDELVSQLVTASLDKEILKHELLHKDQQFHEASKTIELLKKFVMLLEMEKEVAVEENANLGYKLTSLLEENRELATEALFMKNEAVGLARCVLKMRDDHFHKVCILQNRIYSLQASRNSEPVSDKVSYGCFGLDKHKTKKKKENKTEEKKPGFKWLKKLNTINLFTKCSLNPSAAAPSCCTFDLPY	not soluble
MLFEDEVGETPGGESYATVVNSRLSELLKRDRIVALLTNPDEVELIEQIECINYKPSISGTGGFVFFVHGDRKTYKILDTDRLALWEDTAATKDVRMSEETRLRFDQNNHLQVSKAKLALDHNGFTLYENTATLARCRRHNKKVVYVLRNGHQYGHGLIMYQYVKPGAHPDPLHQTVQLMTDAWFDILPPDIRMVVYYLLKYNHADETARIVHREHSVYLSRMKAGRPPPPSTSACTS	not soluble
MLFTEMEIEIPKAVFEELQLYIEYLQEKTGKTIDPMAAIGNILQTYFENNGLWGVSEEDFKEKAKIAVKKLLTKKAKKDKPLLTKKVEKLLTQAVEIEQVPAKTAGQIAYQAKALVQVTFPHRDPKTPYYRCDSGKYSLIITADPDHGIPYGTYPRLITCWLVTEIVRTNSRRIVLGKCFSDFLRSIGVGLDSRTRKQVEQQIKRLFSADIKLKYNSKESWQFQRCNVATKAAMWWDTKNPDQFTLDESFVVVGEDFYAMALNAPFPIDLRALAALKQSPMALDIYMWLTLRMCHLAAPYPLSWPQLKSQFGPETSDLDNFRTKFKDALKKVRVVYPHAKLSVNAKELTLFPSPTHVQKAVKRVAALEHHHHHH	soluble
MLGGFVMDLFPFLPGVRISLQSGWLPSGAADALLAGLLEGVPWEVHRIHIFGREVNSPRLSCWVGDPQASYRYSGRCFQPRPWWPALAELRMCLEGETGAVFNSVLLNRYRHGGDAIGWHSDDEAELGIDPLIASVSLGASRRFVFRHRRERHLRAECVLSHGDLLLMGGTTQRDYQHALPRTLRVVGERVNLTFRRILMLEHHHHHH	soluble
MLGIHRYDENLPPDELARDYLERTLFVMERVKFHTLAHLDYPARYAKADFKANRDLIEKILVFLVKNEKALEINTAGLFKHGKPNPDYWIVEMYYDLGGRVVTIGSDAHESQHIGRG	soluble
MLGKGGKRKFDEHEDGLEGKIVSPCDGPSKVSYTLQRQTIFNISLMKLYNHRPLTEPSLQKTVLINNMLRRIQEELKQEGSLRPMFTPSSQPTTEPSDSYREAPPAFSHLASPSSHPCDLGSTTPLEACLTPASLLEDDDDTFCTSQAMQPTAPTKLSPPALLPEKDSFSSALDEIEELCPTSTSTEAATAATDSVKGTSSEAGTQKLDGPQESRADDSKLMDSLPGNFEITTSTGFLTDLTLDDILFADIDTSMYDFDPCTSSSGTASKMAPVSADDLLKTLAPYSSQPVTPSQPFKMDLTELDHIMEVLVGS	soluble
MLGSIACSMEFEDFDLYSYFYGLVKQIPEGYVTTYGDLAQALGDPIAARAVGYMLSINEDPDTIPCYRVVLHDGTVGNYTHPLGPMEKVRRLRADGIPVVDGMIENFDRYRFRDFKTDQPLRKMQQYQEYIARKYSESGAGEFRTVAAFDVSYEERRAFASMVIQDGSTIEAYVISDGINFPYIPGYLAFREFRFIKKLYRKADLLLIDGNGILHPRFAGLATHAGVLLDRASIGVAKHLTRSTRHQDIIYMQDRPVGVMIRKNMIVSPGNFIDVNGSADTVRKMWNDRYPWPLKLAHQLSTRHAETGGRVSEYSIESAHELHLEHHHHHH	soluble
